We go through three molecules from patent publication US20230093708A1, “PROTEIN NANOPARTICLE DESIGN AND APPLICATION” (Duke University, priority 2020, published 2023).

A short description of series [1]: Static and dynamic light scattering (SLS/DLS) of block co-polypeptides. The class given is physicochemical. Conditions: for ρ: shape factor Rg/Rh. The procedure: Key parameters of interest are the hydrophilicity of the corona-forming block, the hydrophilicity of the core block, the overall length of the co-polypeptide and the ratio of the two blocks. Parameters of evaluation are the size, morphology, stability, and thermoresponsive behavior. All measurements were made in 140 mM NaCl, 10 mM phosphate buffer, 3 mM KCl, pH 7.4 unless otherwise specified. Size was evaluated by the hydrodynamic radios (Rh) and radius of gyration (Rg) by dynamic light scattering (DLS) and static light scattering (SLS) respectively. Rg and Rh can be combined to yield the shape factor ρ=Rg/Rh, which provides a rough indication of the morphology of the scatterer. […] For an elongated scatterer, the shape factor depends upon the aspect ratio. A combination of temperature dependent turbidity and DLS was utilized to determine the phase behavior of the block co-polypeptides. Cryogenic transmission electron microscopy (Cryo-TEM) was utilized to evaluate the morphology and provide crucial insight into the hydration of the core/corona chains. Stability of the assembled nanostructure was determined by a shift in the I1/I3 fluorescent bands of pyrene as described previously.
Static and dynamic light scattering measurements (SLS/DLS) were performed using an ALV/CGS-3 goniometer system (Langen, Germany). Samples for the ALV/CGS-3 goniometer system were prepared at a concentration of 10 μM in PBS and filtered through 0.45 μm Millex-GV filters into a 10 mm disposable borosilicate glass tube (Fischer). Simultaneous SLS and DLS measurements were obtained at 15° C. of the ELP for angles between 30°-150° at 5° increments, with each angle consisting of 3 runs for 15 s. SLS experiments were only conducted for self-assembling block co-polypeptides, since the molecular weight of a single block co-polypeptide chain is already known, and the Rg of a single chain is likely near or below the detection limit of the SLS instrument. The differential refractive index (dn/dc) was determined by measuring the refractive index at different concentrations using an Abbemat 500 refractometer (Anton Paar, Graz, Austria). DLS data were analyzed by fitting the autocorrelation function with a cumulant fit, using the built-in ALV software. Hydrodynamic radius (Rh) was plotted against angle and extrapolated to zero. SLS data were analyzed by partial Zimm plots using ALVSTAT software in order to determine the Rg and molecular weight (MW).

The nature of series [2]: Cryo-TEM micelle core size, inter-core spacing and aspect ratio. The class given is physicochemical. The procedure: Using the data from FIG. 18, particularly the longest straight line of an individual particle and a corresponding perpendicular measurement were made to describe the aspect ratio of particles observed.
Cryo-TEM experiments were performed at Duke University's Shared Materials Instrumentation Facility (Durham, N.C.). Lacey holey carbon grids (Ted Pella, Redding, Calif.) were glow discharged in a PELCO EasiGlow Cleaning System (Ted Pella, Redding, Calif.). A 3 μL drop (10 μM RLPn-ELP80) was deposited onto the grid, blotted for 3 s with an offset of −3 mm, and vitrified in liquid ethane using the Vitrobot Mark III (FEI, Eindhoven, Netherlands). Prior to vitrification, the sample chamber was maintained at 15° C. and 100% relative humidity to prevent sample evaporation. Grids were transferred to a Gatan 626 cryoholder (Gatan, Pleasanton, Calif.) and imaged with a FEI Tecnai G2 Twin TEM (FEI, Eindhoven, Netherlands), operating at 80 keV. Feature sizes and spacing distances were measured in ImageJ by manual measurement of at least 25 particles.

B1: RLP60-ELPS80: RLP-ELP block co-polypeptide with Ser guest residue in the corona (protein)
chain: QYPSDGRGQYPSDGRGQYPSDGRGQYPSDGRGQYPSDGRGQYPSDGRGQYPSDGRGQYPSDGRGQYPSDGRGQYPSDGRGQYPSDGRGQYPSDGRGQYPSDGRGQYPSDGRGQYPSDGRGQYPSDGRGQYPSDGRGQYPSDGRGQYPSDGRGQYPSDGRGQYPSDGRGQYPSDGRGQYPSDGRGQYPSDGRGQYPSDGRGQYPSDGRGQYPSDGRGQYPSDGRGQYPSDGRGQYPSDGRGQYPSDGRGQYPSDGRGQYPSDGRGQYPSDGRGQYPSDGRGQYPSDGRGQYPSDGRGQYPSDGRGQYPSDGRGQYPSDGRGQYPSDGRGQYPSDGRGQYPSDGRGQYPSDGRGQYPSDGRGQYPSDGRGQYPSDGRGQYPSDGRGQYPSDGRGQYPSDGRGQYPSDGRGQYPSDGRGQYPSDGRGQYPSDGRGQYPSDGRGQYPSDGRGQYPSDGRGQYPSDGRGQYPSDGRGQYPSDGRGGSGVPGSGVPGSGVPGSGVPGSGVPGSGVPGSGVPGSGVPGSGVPGSGVPGSGVPGSGVPGSGVPGSGVPGSGVPGSGVPGSGVPGSGVPGSGVPGSGVPGSGVPGSGVPGSGVPGSGVPGSGVPGSGVPGSGVPGSGVPGSGVPGSGVPGSGVPGSGVPGSGVPGSGVPGSGVPGSGVPGSGVPGSGVPGSGVPGSGVPGSGVPGSGVPGSGVPGSGVPGSGVPGSGVPGSGVPGSGVPGSGVPGSGVPGSGVPGSGVPGSGVPGSGVPGSGVPGSGVPGSGVPGSGVPGSGVPGSGVPGSGVPGSGVPGSGVPGSGVPGSGVPGSGVPGSGVPGSGVPGSGVPGSGVPGSGVPGSGVPGSGVPGSGVPGSGVPGSGVPGSGVPGSGVPGSGVPGSGVP
Regarding B1, in series [1] (Table 5, 10 μM in PBS, 15 °C), the Nagg was found to be 244, the “Rg(nm)” value is recorded as 27.5 nm and the “Rh (nm)” value is 43.5 nm. Besides, the ρ in series [1] (Table 5) stood at 0.6.

B2: [S]-80-[NHQ]-40: block co-polypeptide of two UCST blocks, (GRGDSPYS)80-(GRGDNPHQ)40 (protein)
chain: GRGDSPYSGRGDSPYSGRGDSPYSGRGDSPYSGRGDSPYSGRGDSPYSGRGDSPYSGRGDSPYSGRGDSPYSGRGDSPYSGRGDSPYSGRGDSPYSGRGDSPYSGRGDSPYSGRGDSPYSGRGDSPYSGRGDSPYSGRGDSPYSGRGDSPYSGRGDSPYSGRGDSPYSGRGDSPYSGRGDSPYSGRGDSPYSGRGDSPYSGRGDSPYSGRGDSPYSGRGDSPYSGRGDSPYSGRGDSPYSGRGDSPYSGRGDSPYSGRGDSPYSGRGDSPYSGRGDSPYSGRGDSPYSGRGDSPYSGRGDSPYSGRGDSPYSGRGDSPYSGRGDSPYSGRGDSPYSGRGDSPYSGRGDSPYSGRGDSPYSGRGDSPYSGRGDSPYSGRGDSPYSGRGDSPYSGRGDSPYSGRGDSPYSGRGDSPYSGRGDSPYSGRGDSPYSGRGDSPYSGRGDSPYSGRGDSPYSGRGDSPYSGRGDSPYSGRGDSPYSGRGDSPYSGRGDSPYSGRGDSPYSGRGDSPYSGRGDSPYSGRGDSPYSGRGDSPYSGRGDSPYSGRGDSPYSGRGDSPYSGRGDSPYSGRGDSPYSGRGDSPYSGRGDSPYSGRGDSPYSGRGDSPYSGRGDSPYSGRGDSPYSGRGDSPYSGRGDSPYSGRGDNPHQGRGDNPHQGRGDNPHQGRGDNPHQGRGDNPHQGRGDNPHQGRGDNPHQGRGDNPHQGRGDNPHQGRGDNPHQGRGDNPHQGRGDNPHQGRGDNPHQGRGDNPHQGRGDNPHQGRGDNPHQGRGDNPHQGRGDNPHQGRGDNPHQGRGDNPHQGRGDNPHQGRGDNPHQGRGDNPHQGRGDNPHQGRGDNPHQGRGDNPHQGRGDNPHQGRGDNPHQGRGDNPHQGRGDNPHQGRGDNPHQGRGDNPHQGRGDNPHQGRGDNPHQGRGDNPHQGRGDNPHQGRGDNPHQGRGDNPHQGRGDNPHQGRGDNPHQ
Regarding B2, the “Rh (nm)” value in series [1] (Table 9, UCST-UCST block co-polypeptides) came out at 7.0 nm.

B3: RLP60-ELP80: RLP-ELP block co-polypeptide, 60 core and 80 corona repeats (protein)
chain: QYPSDGRGQYPSDGRGQYPSDGRGQYPSDGRGQYPSDGRGQYPSDGRGQYPSDGRGQYPSDGRGQYPSDGRGQYPSDGRGQYPSDGRGQYPSDGRGQYPSDGRGQYPSDGRGQYPSDGRGQYPSDGRGQYPSDGRGQYPSDGRGQYPSDGRGQYPSDGRGQYPSDGRGQYPSDGRGQYPSDGRGQYPSDGRGQYPSDGRGQYPSDGRGQYPSDGRGQYPSDGRGQYPSDGRGQYPSDGRGQYPSDGRGQYPSDGRGQYPSDGRGQYPSDGRGQYPSDGRGQYPSDGRGQYPSDGRGQYPSDGRGQYPSDGRGQYPSDGRGQYPSDGRGQYPSDGRGQYPSDGRGQYPSDGRGQYPSDGRGQYPSDGRGQYPSDGRGQYPSDGRGQYPSDGRGQYPSDGRGQYPSDGRGQYPSDGRGQYPSDGRGQYPSDGRGQYPSDGRGQYPSDGRGQYPSDGRGQYPSDGRGQYPSDGRGQYPSDGRGGAGVPGGGVPGAGVPGGGVPGAGVPGGGVPGAGVPGGGVPGAGVPGGGVPGAGVPGGGVPGAGVPGGGVPGAGVPGGGVPGAGVPGGGVPGAGVPGGGVPGAGVPGGGVPGAGVPGGGVPGAGVPGGGVPGAGVPGGGVPGAGVPGGGVPGAGVPGGGVPGAGVPGGGVPGAGVPGGGVPGAGVPGGGVPGAGVPGGGVPGAGVPGGGVPGAGVPGGGVPGAGVPGGGVPGAGVPGGGVPGAGVPGGGVPGAGVPGGGVPGAGVPGGGVPGAGVPGGGVPGAGVPGGGVPGAGVPGGGVPGAGVPGGGVPGAGVPGGGVPGAGVPGGGVPGAGVPGGGVPGAGVPGGGVPGAGVPGGGVPGAGVPGGGVPGAGVPGGGVPGAGVPGGGVPGAGVPGGGVP
As to B3, in series [1] (Table 1, 10 μM in PBS, 15 °C), the Nagg came to 231, the “Rg(nm)” value is listed as 23.8 nm and the “Rh (nm)” value is reported as 36.7 nm. Moreover, the ρ in series [1] (Table 1) stood at 0.65. In series [2], the “core radius (cryo-TEM)” value is given as roughly 17.5 nm and the “spacing between particle cores (cryo-TEM)” value was 29.5 nm. Moreover, in series [2] (Table 2, inter-core spacing, mean ± standard deviation), the “Spacing (nm)” value stood at 28.9 ± 5.1 nm. The “Core radius (nm)” value in series [2] (Table 2, mean ± standard deviation, 10 μM in 140 mM PBS) came out at 17.5 ± 2.7 nm.
